Measured values reported in patent publication US10501734B2, “Compositions and methods of use thereof for making polypeptides with many instances of nonstandard amino acids” (Yale University, priority 2014, dated 2019).
Changes are numbered by the printed parent chain. Names may count otherwise. “Also recorded” adds a separate entry of the source.

B1: pAzFRS.1: pAcFRS variant D158V, I159M, L162D, A167Y, SEQ ID NO: 10 (protein)
chain: MDEFEMIKRNTSEIISEEELREVLKKDEKSALIGFEPSGKIHLGHYLQIKKMIDLQNAGFDIIILLADLHAYLNQKGELDEIRKIGDYNKKVFEAMGLKAKYVYGSEFQLDKDYTLNVYRLALKTTLKRARRSMELIAREDENPKVAEVIYPIMQVNVMHYDGVDVYVGGMEQRKIHMLARELLPKKVVCIHNPVLTGLDGEGKMSSSKGNFIAVDDSPEEIRAKIKKAYCPAGVVEGNPIMEIAKYFLEYPLTIKRPEKFGGDLTVNSYEELESLFKNKELHPMRLKNAVAEELIKILEPIRKRL
B2: pAzFRS.2: pAcFRS variant E107T, F108Y, Q109M, SEQ ID NO: 13 (protein)
chain: B1 chain with E107T, F108Y, Q109M, V158G, M159C, D162R, Y167A

Columns and labels:
[1] = tested on: GFP(3TAG); format: cell-based, E. coli; settings: for GFP(3TAG) fluorescence compared to WT-protein: plasmid-based pAcF OTS in the GRO; for higher GFP(3TAG) production compared with the progenitor enzyme: chromosomally integrated AARS, pAzF
Method: (§1) Liquid cell cultures of strains harboring chromosomally integrated OTSs and GFP reporter plasmids were inoculated from frozen stocks and grown to confluence overnight. Cultures were then inoculated at 1:20 dilution in LBmin media supplemented with 30 μg/ml kanamycin. Strains were inoculated by addition of 1:20 confluent cell culture (grown overnight) and allowed to grow at 34° C. to an OD600 of 0.5-0.8 in a shaking plate incubator at 650 r.p.m (˜3 h). AARS expression was then induced by the addition of 0.2% arabinose, GFP expression was induced by the addition of 60 ng/ul anhydrotetracycline, and the appropriate nsAA was added to a concentration of 1 mM. Cells were incubated at 34° C. for an additional 16 h. Liquid cell cultures of strains harboring plasmid-based OTSs and GFP or ELP-GFP reporter plasmids were inoculated from frozen stocks and grown to confluence overnight. Cultures were then inoculated at 1:20 dilution in 2×YT media supplemented with 30 μg/ml kanamycin and 20 μg/ml chloramphenicol. […] Cells were allowed to grow at 34° C. to an OD600 of 0.5-0.8 in a shaking plate incubator at 650 r.p.m (˜3 h), reporter protein expression was then induced by the addition of 60 ng/ul anhydrotetracycline, and cells were incubated at 34° C. for an additional 16 h.
(§2) For 384 well plate-based assays, fluorescence and OD600 were directly measured following expression. For 96 well plate-based assays, cells were centrifuged at 4,000 g for 4 min. Supernatant medium was removed and cells were resuspended in PBS. This process was repeated twice with PBS. GFP fluorescence was measured on a Biotek spectrophotometric plate reader using excitation and emission wavelengths of 395 and 509 nm, respectively). Fluorescence signals were normalized by dividing the fluorescence counts by the OD600 reading. The nsAAs used in this study were purchased from Sigma-Aldrich (St. Louis, Mo.), Chemlmpex (Wood Dale, Ill.), and Bachem (Torrance, Calif.). Solutions of nsAAs (50 mM) were made in water or 50 mM NaOH; these stock solutions were diluted 50- or 100-fold (to 1 mM final concentration) into medium used for bacterial growth.

[2] = tested on: ELP(10TAG)-GFP; experiment: Intact cell GFP fluorescence, ELP(10TAG)-GFP production; design: species or system E. coli; settings: plasmid-based pAcF OTS in the GRO
Method: Liquid cell cultures of strains harboring chromosomally integrated OTSs and GFP reporter plasmids were inoculated from frozen stocks and grown to confluence overnight. Cultures were then inoculated at 1:20 dilution in LBmin media supplemented with 30 μg/ml kanamycin. Strains were inoculated by addition of 1:20 confluent cell culture (grown overnight) and allowed to grow at 34° C. to an OD600 of 0.5-0.8 in a shaking plate incubator at 650 r.p.m (˜3 h). AARS expression was then induced by the addition of 0.2% arabinose, GFP expression was induced by the addition of 60 ng/ul anhydrotetracycline, and the appropriate nsAA was added to a concentration of 1 mM. Cells were incubated at 34° C. for an additional 16 h. Liquid cell cultures of strains harboring plasmid-based OTSs and GFP or ELP-GFP reporter plasmids were inoculated from frozen stocks and grown to confluence overnight. Cultures were then inoculated at 1:20 dilution in 2×YT media supplemented with 30 μg/ml kanamycin and 20 μg/ml chloramphenicol. […]
For 384 well plate-based assays, fluorescence and OD600 were directly measured following expression. […] GFP fluorescence was measured on a Biotek spectrophotometric plate reader using excitation and emission wavelengths of 395 and 509 nm, respectively). Fluorescence signals were normalized by dividing the fluorescence counts by the OD600 reading. […]

[3] = tested on: ELP(30TAG)-GFP; experiment: Intact cell GFP fluorescence, ELP(30TAG)-GFP production; format: cell-based, E. coli; settings: plasmid-based pAcF OTS in the GRO
Method: as §1, §2

[4] = tested on: ELP(30TAG)-GFP; experiment: ELP expression and purification, yield of purified ELP(30TAG)-GFP; format: cell-based, E. coli; settings: for yield of purified ELP(30TAG)-GFP compared to expression of WT protein: small batch cultures
Method: Before batch expression, starter cultures (2 mL) of 2×YT media supplemented with 30 μg/mL kanamayacin and 20 μg/mL chloramphenicol were inoculated with transformed cells from a fresh agar plate or from stocks stored at −80° C., and incubated overnight at 34° C. while shaking at 250 rpm. Expression cultures (250 ml flasks containing 50 ml of 2×YT media, antibiotics, 0.2% arabinose and 1 mM of the nsAA) were inoculated with 0.5 ml of the starter culture and incubated at 34° C. for 4 h and then reporter protein expression was induced with 60 μg/mL anhydrotetracyclin.
Cells were harvested 24 h after inoculation by centrifugation at 4,000 g for 15 min at 4° C. The cell pellet was resuspended by vortex in ˜1.5 mL PBS buffer and stored at −80° C. or immediately purified. For purification, resuspended pellets were lysed by ultrasonic disruption (9 cycles of 10 s sonication separated by 40 s intervals). Poly(ethyleneimine) (0.2 mL of 10% solution) was added to each lysed suspension before centrifugation at 15,000 g for 3 min to separate cell debris from the soluble cell lysate.
All ELP constructs were purified by a modified Inverse Transition Cycling (ITC) protocol consisting of multiple “hot” and “cold” spins using sodium citrate to trigger the phase transition. Before purification, the soluble cell lysate was incubated for 1-2 min at ˜65° C. to denature native E. coli proteins. For “hot” spins, the ELP phase transition was triggered by adding sodium citrate to the cell lysate or the product of a previous cycle of ITC at a final concentration of ˜0.5 M. The solutions were then centrifuged at 14,000 g for 3 min and the pellets were resuspended in PBS, followed by a 3-5 min “cold” spin performed without addition of sodium citrate to remove denatured contaminant. Additional rounds of ITC were carried out as needed until sufficient purification was achieved.
Protein concentration was calculated by measuring the OD280 of purified protein stocks according to the following extinction coefficients for ELP(30TAG)-GFP.

[5] = tested on: GFP(3TAG); experiment: nsAA library screening, GFP(3TAG) fluorescence in 384 well plates; format: cell-based, E. coli; settings: GFP(3TAG) production in the presence of pAcF, pAzF and 236 other nsAAs
Method: as §1
as §2, with “growth. […]” for “growth.”

[6] = ATP-PPi exchange assay (amino acid activation); format: biochemical; settings: nsAA pAzF; for Fold change: relative to progenitor pAcFRS
Method: A 25 μl ATP-PPi exchange reaction contained the following components: 100 mM HEPES-KOH (pH 7.5), 30 mM KCl, 10 mM MgCl2, 2 mM DTT, 2 mM KF, 2 mM NaPPi, 5 mM ATP, […], 2 μCi/μl of […] (PerkinElmer) and varied concentrations of amino acids (0.25, 0.5, 1.25, 2.5, 5, 10, and 20 mM, respectively). The reactions were incubated at 37° C. Time points were taken at 2 minutes, 5 minutes and 10 minutes by plotting 1 μl aliquots from the reaction immediately to the PEI-cellulose plates (Merck). For each reaction, 1 μl of blank reaction mixture containing no enzymes was set as background. The reaction mixtures were separated on the plates in 1 M urea and 1 M monopotassium phosphate. The plates were then scanned in a Molecular Dynamics Storm 860 phosphorimager (Amersham Biosciences). The ratio of ATP to PPi was determined to monitor reaction progress. The kinetic constants were derived from plotting initial velocity of a series of reactions that contained varied concentrations of amino acids. The data were analyzed by GraFit 5.0 (Erithacus Software).

[7] = tested on: tRNA; experiment: Aminoacylation assay (tRNA charging); format: biochemical; settings: nsAA pAzF; for Fold change: relative to progenitor pAcFRS
Method: Template plasmid containing tRNA gene was purified with the plasmid maxi kit (Qiagen), and 100 μg of plasmid was digested with BstNI (New England Biolabs). The BstNI digested template DNA was purified by phenol chloroform extraction, followed by ethanol precipitation and resolved in double distilled water. A His-tagged T7 RNA polymerase was purified over column of Ni-NTA resin according to manufacturer's instructions (Qiagen). The transcription reaction [40 mM Tris (pH 8); 4 mM each of UTP, CTP, GTP, and ATP at pH 7.0; 22 mM MgCl2; 2 mM spermidine; 10 mM DTT; 6 μg pyrophosphatase (Roche Applied Science); 60 μg/mL BstNI digested DNA template, approximately 0.2 mg/ml T7 RNA polymerase] was performed in 10 ml reaction volumes for overnight at 37° C. The tRNA was purified on 12% denaturing polyacrylamide gel containing 8 M urea and TBE buffer (90 mM Tris, 90 mM boric acid, 2 mM EDTA). UV shadowing illuminates the pure tRNA band, which is excised and extracted three times with 1M sodium acetate pH 5.3 at 4° C. The tRNA extractions were then ethanol precipitated, dissolved in RNase-free distilled water, pooled, and finally desalted using a Biospin 30 column (BioRad). The ratio of aminoacylated tRNA to total tRNA was determined to monitor reaction progress.
The tRNA was refolded by heating to 100° C. for 5 min and slow cooling to room temperature. At 65° C., MgC12, was added to a final concentration of 10 mM to aid folding. A His-tagged CCA adding enzyme was purified over column of Ni-NTA resin according to manufacturer's instructions (Qiagen). 16 μM folded tRNA in 50 mM Tris (pH 8.0), 20 mM MgCl2, 5 mM DTT and 50 μM NaPPi was incubated at room temperature for 1 hour with approximately 0.2 mg/ml CCA-adding enzyme and 1.6 μCi/μl of [α-32P]-labeled ATP (PerkinElmer). The sample was phenol/chloroform extracted and then passed over a Bio-spin 30 column (Bio-Rad) to remove excess ATP.
A 20 μl aminoacylation reaction contained the following components: 50 mM HEPES-KOH (pH 7.2), 25 mM KCl, 10 mM MgCl2, 5 mM DTT, 10 mM ATP, 25 μg/ml pyrophosphatase (Roche Applied Science), 2 mM amino acids. All plateau tRNA aminoacylation levels were determined at 37° C. according to the reactions conditions described above with 500 nM enzyme, 5 μM unlabeled tRNA plus 100 nM 32P-labeled tRNA. Time points were taken at 5 minutes, 20 minutes and 60 minutes by removing 2 μl aliquots from the reaction and immediately quenching the reaction into an ice-cold 3 μl quench solution [0.66 μg/μl nuclease P1 (Sigma) in 100 mM sodium citrate (pH 5.0)]. For each reaction, 2 μl of blank reaction mixture containing no enzymes was added to the quench solution as the start time point. The nuclease P1 mixture was then incubated at room temperature for 30 min and 1 μl aliquots were spotted on PEI-cellulose plates (Merck) and developed in running buffer containing 5% acetic acid and 100 mM ammonium acetate. Radioactive spots for AMP and AA-AMP (representing free tRNA and aminoacyl-tRNA, respectively) were separated and then visualized and quantified by phosphor imaging by a Molecular Dynamics Storm 860 phosphorimager (Amersham Biosciences). The ratio of aminoacylated tRNA to total tRNA was determined to monitor reaction progress.

Row | Molecule | GFP(3TAG) fluorescence compared to WT-protein [1] [%] | ELP(10TAG)-GFP fluorescence compared to WT-protein [2] [%] | ELP(30TAG)-GFP fluorescence compared to WT-protein [3] [%] | yield of purified ELP(30TAG)-GFP compared to expression of WT protein ([4]; GRO) [%] | yield of purified ELP(30TAG)-GFP compared to expression of WT protein ([4]; parent (non-recoded) strain) [%] | Yield of purified ELP(30TAG)-GFP ([4]; nsAA pAzF, GRO) | higher GFP(3TAG) production compared with the progenitor enzyme [1] [fold] | nsAA specificity (polyspecificity) [5] | Km [6] [mM] | kcat [6] | Fold change [6] | Km [7] [µM] | kcat [7] | Fold change [7]
1 | CC(=O)c1ccc(C[C@H](N)C(=O)O)cc1 [pAcF, p-acetyl-L-phenylalanine, reference compound] | 110 | 87 | 25 | 18 | 8 |  |  |  |  |  |  |  |  | 
2 | [N-]=[N+]=Nc1ccc(C[C@H](N)C(=O)O)cc1 [pAzF, p-azido-L-phenylalanine, reference compound] | 75 | 32 | 6 |  |  | too low to allow for purification |  |  |  |  |  |  |  | 
3 | B1 |  |  |  |  |  |  | ~3.5 | specific for pAzF; also recorded: exceptional specificity toward pAzF with almost complete exclusion of any other nsAA; also recorded: both more efficient and more specific for pAzF than previously reported pAzFRSs | 1.18 ± 0.21 | 4.61 ± 0.18 ×10^−2 s^−1 | 2.68 | 38 ± 5 | 0.46 ± 0.18 ×10^−3 s^−1 | 1.48
4 | B2 |  |  |  |  |  |  | ~12 | polyspecific for at least pAcF, pAzF, StyA, 4IF, 4BrF, 4ClF, 4MeF, 4Cf3F, MeY, 4NO2F, 4BuF, BuY, 2NaA, PheF | 1.25 ± 0.11 | 4.13 ± 0.86 ×10^−2 s^−1 | 2.26 | 32 ± 11 | 0.73 ± 0.06 ×10^−3 s^−1 | 3.67
